According to patent US20260201008A1, “SECRETIN-DERIVED GLP1R SELECTIVE AGONISTS” (GUBRA A/S, priority 2023, published 2026):
Square brackets hold non-standard residues; d marks the D form. Ends that are not written are not given here. Aib = CC(C)(N)C(=O)O

B1: SEQ ID NO: 128 (peptide)
peptide: H[Aib]EGTFTSDPSYLLEGAALQRFIQWLV-NH2
modifications: N-terminus assumed
SMILES: CC[C@H](C)[C@H](NC(=O)[C@H](Cc1ccccc1)NC(=O)[C@H](CCCNC(=N)N)NC(=O)[C@H](CCC(N)=O)NC(=O)[C@H](CC(C)C)NC(=O)[C@H](C)NC(=O)[C@H](C)NC(=O)CNC(=O)[C@H](CCC(=O)O)NC(=O)[C@H](CC(C)C)NC(=O)[C@H](CC(C)C)NC(=O)[C@H](Cc1ccc(O)cc1)NC(=O)[C@H](CO)NC(=O)[C@@H]1CCCN1C(=O)[C@H](CC(=O)O)NC(=O)[C@H](CO)NC(=O)[C@@H](NC(=O)[C@H](Cc1ccccc1)NC(=O)[C@@H](NC(=O)CNC(=O)[C@H](CCC(=O)O)NC(=O)C(C)(C)NC(=O)[C@@H](N)Cc1c[nH]cn1)[C@@H](C)O)[C@@H](C)O)C(=O)N[C@@H](CCC(N)=O)C(=O)N[C@@H](Cc1c[nH]c2ccccc12)C(=O)N[C@@H](CC(C)C)C(=O)N[C@H](C(N)=O)C(C)C
B2: SEQ ID NO: 126 (peptide)
peptide: H[Aib]EGTFTSDPSFLLEGAALQRFIQWLV-NH2
modifications: N-terminus assumed
SMILES: CC[C@H](C)[C@H](NC(=O)[C@H](Cc1ccccc1)NC(=O)[C@H](CCCNC(=N)N)NC(=O)[C@H](CCC(N)=O)NC(=O)[C@H](CC(C)C)NC(=O)[C@H](C)NC(=O)[C@H](C)NC(=O)CNC(=O)[C@H](CCC(=O)O)NC(=O)[C@H](CC(C)C)NC(=O)[C@H](CC(C)C)NC(=O)[C@H](Cc1ccccc1)NC(=O)[C@H](CO)NC(=O)[C@@H]1CCCN1C(=O)[C@H](CC(=O)O)NC(=O)[C@H](CO)NC(=O)[C@@H](NC(=O)[C@H](Cc1ccccc1)NC(=O)[C@@H](NC(=O)CNC(=O)[C@H](CCC(=O)O)NC(=O)C(C)(C)NC(=O)[C@@H](N)Cc1c[nH]cn1)[C@@H](C)O)[C@@H](C)O)C(=O)N[C@@H](CCC(N)=O)C(=O)N[C@@H](Cc1c[nH]c2ccccc12)C(=O)N[C@@H](CC(C)C)C(=O)N[C@H](C(N)=O)C(C)C
B3: SEQ ID NO: 124 (peptide)
peptide: H[Aib]EGTFTSDPSRLLEGAALQRFIQWLV-NH2
modifications: N-terminus assumed
SMILES: CC[C@H](C)[C@H](NC(=O)[C@H](Cc1ccccc1)NC(=O)[C@H](CCCNC(=N)N)NC(=O)[C@H](CCC(N)=O)NC(=O)[C@H](CC(C)C)NC(=O)[C@H](C)NC(=O)[C@H](C)NC(=O)CNC(=O)[C@H](CCC(=O)O)NC(=O)[C@H](CC(C)C)NC(=O)[C@H](CC(C)C)NC(=O)[C@H](CCCNC(=N)N)NC(=O)[C@H](CO)NC(=O)[C@@H]1CCCN1C(=O)[C@H](CC(=O)O)NC(=O)[C@H](CO)NC(=O)[C@@H](NC(=O)[C@H](Cc1ccccc1)NC(=O)[C@@H](NC(=O)CNC(=O)[C@H](CCC(=O)O)NC(=O)C(C)(C)NC(=O)[C@@H](N)Cc1c[nH]cn1)[C@@H](C)O)[C@@H](C)O)C(=O)N[C@@H](CCC(N)=O)C(=O)N[C@@H](Cc1c[nH]c2ccccc12)C(=O)N[C@@H](CC(C)C)C(=O)N[C@H](C(N)=O)C(C)C
B4: SEQ ID NO: 127 (peptide)
peptide: H[Aib]EGTFTSDPSWLLEGAALQRFIQWLV-NH2
modifications: N-terminus assumed
SMILES: CC[C@H](C)[C@H](NC(=O)[C@H](Cc1ccccc1)NC(=O)[C@H](CCCNC(=N)N)NC(=O)[C@H](CCC(N)=O)NC(=O)[C@H](CC(C)C)NC(=O)[C@H](C)NC(=O)[C@H](C)NC(=O)CNC(=O)[C@H](CCC(=O)O)NC(=O)[C@H](CC(C)C)NC(=O)[C@H](CC(C)C)NC(=O)[C@H](Cc1c[nH]c2ccccc12)NC(=O)[C@H](CO)NC(=O)[C@@H]1CCCN1C(=O)[C@H](CC(=O)O)NC(=O)[C@H](CO)NC(=O)[C@@H](NC(=O)[C@H](Cc1ccccc1)NC(=O)[C@@H](NC(=O)CNC(=O)[C@H](CCC(=O)O)NC(=O)C(C)(C)NC(=O)[C@@H](N)Cc1c[nH]cn1)[C@@H](C)O)[C@@H](C)O)C(=O)N[C@@H](CCC(N)=O)C(=O)N[C@@H](Cc1c[nH]c2ccccc12)C(=O)N[C@@H](CC(C)C)C(=O)N[C@H](C(N)=O)C(C)C
B5: SEQ ID NO: 14 (peptide)
peptide: H[Aib]EGTFTSDVSELKEEAAQQRFLEHLV-NH2
modifications: not fully specified (residue 14); also: K14 lipidated with C20DA[γE][OEG][OEG]- or C18DA[γE][OEG][OEG]-
B6: SEQ ID NO: 129 (peptide)
peptide: H[Aib]EGTFTSDPSVLLEGAALQRFIQWLV-NH2
modifications: N-terminus assumed
SMILES: CC[C@H](C)[C@H](NC(=O)[C@H](Cc1ccccc1)NC(=O)[C@H](CCCNC(=N)N)NC(=O)[C@H](CCC(N)=O)NC(=O)[C@H](CC(C)C)NC(=O)[C@H](C)NC(=O)[C@H](C)NC(=O)CNC(=O)[C@H](CCC(=O)O)NC(=O)[C@H](CC(C)C)NC(=O)[C@H](CC(C)C)NC(=O)[C@@H](NC(=O)[C@H](CO)NC(=O)[C@@H]1CCCN1C(=O)[C@H](CC(=O)O)NC(=O)[C@H](CO)NC(=O)[C@@H](NC(=O)[C@H](Cc1ccccc1)NC(=O)[C@@H](NC(=O)CNC(=O)[C@H](CCC(=O)O)NC(=O)C(C)(C)NC(=O)[C@@H](N)Cc1c[nH]cn1)[C@@H](C)O)[C@@H](C)O)C(C)C)C(=O)N[C@@H](CCC(N)=O)C(=O)N[C@@H](Cc1c[nH]c2ccccc12)C(=O)N[C@@H](CC(C)C)C(=O)N[C@H](C(N)=O)C(C)C
B7: SEQ ID NO: 141 (peptide)
peptide: H[Aib]EGTFTSDVSYLKEEA[Aib]LQRYLEHLV-NH2
modifications: not fully specified (residue 14); also: K14 lipidated with C20DA[γE][OEG][OEG]- or C18DA[γE][OEG][OEG]-
B8: SEQ ID NO: 140 (peptide)
peptide: H[Aib]EGTFTSDVSPLKEEA[Aib]LQRFLEHLV-NH2
modifications: not fully specified (residue 14); also: K14 lipidated with C20DA[γE][OEG][OEG]- or C18DA[γE][OEG][OEG]-
B9: SEQ ID NO: 125 (peptide)
peptide: H[Aib]EGTFTSDPS[Aib]LLEGAALQRFIQWLV-NH2
modifications: N-terminus assumed
SMILES: CC[C@H](C)[C@H](NC(=O)[C@H](Cc1ccccc1)NC(=O)[C@H](CCCNC(=N)N)NC(=O)[C@H](CCC(N)=O)NC(=O)[C@H](CC(C)C)NC(=O)[C@H](C)NC(=O)[C@H](C)NC(=O)CNC(=O)[C@H](CCC(=O)O)NC(=O)[C@H](CC(C)C)NC(=O)[C@H](CC(C)C)NC(=O)C(C)(C)NC(=O)[C@H](CO)NC(=O)[C@@H]1CCCN1C(=O)[C@H](CC(=O)O)NC(=O)[C@H](CO)NC(=O)[C@@H](NC(=O)[C@H](Cc1ccccc1)NC(=O)[C@@H](NC(=O)CNC(=O)[C@H](CCC(=O)O)NC(=O)C(C)(C)NC(=O)[C@@H](N)Cc1c[nH]cn1)[C@@H](C)O)[C@@H](C)O)C(=O)N[C@@H](CCC(N)=O)C(=O)N[C@@H](Cc1c[nH]c2ccccc12)C(=O)N[C@@H](CC(C)C)C(=O)N[C@H](C(N)=O)C(C)C

Target: human secretin receptor (hSCTR) (human, UniProt P47872 23-440)
Sequence (P47872 23-440): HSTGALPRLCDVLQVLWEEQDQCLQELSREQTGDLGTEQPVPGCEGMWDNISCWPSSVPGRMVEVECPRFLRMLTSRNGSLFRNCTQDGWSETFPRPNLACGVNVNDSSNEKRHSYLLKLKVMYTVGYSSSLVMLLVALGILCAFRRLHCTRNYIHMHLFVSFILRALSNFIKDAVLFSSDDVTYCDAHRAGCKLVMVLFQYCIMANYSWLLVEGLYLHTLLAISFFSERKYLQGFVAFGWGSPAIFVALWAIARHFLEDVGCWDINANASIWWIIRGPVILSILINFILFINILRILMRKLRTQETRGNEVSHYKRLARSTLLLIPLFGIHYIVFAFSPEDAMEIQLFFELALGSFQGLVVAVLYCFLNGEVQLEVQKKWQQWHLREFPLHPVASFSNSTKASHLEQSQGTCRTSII
Assay: cell-based or functional assay

Row | Binder | pEC50 hSCTR
1 | H[Aib]EGTFTSDVSYLKEEA[Aib]IQRFLEHLV-NH2 (not fully specified (residue 14)) [SEQ ID NO: 139] | 6.9 -log M
2 | B1 | 4.7 -log M
3 | H[Aib]EGTFTSDVSYLKEEA[Aib]LQRWLEHLV-NH2 (not fully specified (residue 14)) [SEQ ID NO: 135] | 6.9 -log M
4 | B2 | 5.7 -log M
5 | H[Aib]EGTFTSDVSVLKEEA[Aib]LQRFLEHLV-NH2 (not fully specified (residue 14)) [SEQ ID NO: 138] | 7.5 -log M
6 | B3 | 5.3 -log M
7 | H[Aib]EGTFTSDVSYLKEEA[Aib]SQRFLEHLV-NH2 (not fully specified (residue 14)) [SEQ ID NO: 134] | 5.6 -log M
8 | B4 | 5.4 -log M
9 | B5 | 6.7 -log M
10 | B6 | 5 -log M
11 | H[Aib]EGTFTSDVSYLWEEA[Aib]LQRFLEKLV-NH2 (not fully specified (residue 25)) [SEQ ID NO: 130] | 6 -log M
12 | H[Aib]EGTFTSDVSFLKE[Aib]AATQRFLEHLV-NH2 (not fully specified (residue 14)) [SEQ ID NO: 13] | 6.5 -log M
13 | B7 | 6.6 -log M
14 | H[Aib]EGTFTSDVSYLKEEA[Aib]LQRFLEFLV-NH2 (not fully specified (residue 14)) [SEQ ID NO: 133] | 6.4 -log M
15 | H[Aib]EGTFTSDVSNLKEEA[Aib]LQRFLEHLV-NH2 (not fully specified (residue 14)) [SEQ ID NO: 136] | 7.9 -log M
16 | H[Aib]EGTFTSDVSYLKEEAALQRFLEHLV-NH2 (not fully specified (residue 14)) [SEQ ID NO: 137] | 7.1 -log M
17 | B8 | 4.7 -log M
18 | H[Aib]EGTFTSDVSYLKEEALLQRFLEHLV-NH2 (not fully specified (residue 14)) [SEQ ID NO: 132] | 6.7 -log M
19 | H[Aib]EGTFTSDVSYLKEEA[Aib]NQRFLEHLV-NH2 (not fully specified (residue 14)) [SEQ ID NO: 131] | 5.3 -log M
20 | B9 | 5 -log M

Target: human GLP-1 receptor (hGLP1R) (human, UniProt P43220 24-463)
Assay: cell-based or functional assay

Row | Binder | pEC50 hGLPR1
21 | H[Aib]EGTFTSDVSYLKEEA[Aib]IQRFLEHLV-NH2 (not fully specified (residue 14)) [SEQ ID NO: 139] | 11.2 -log M
22 | B1 | 7.8 -log M
23 | H[Aib]EGTFTSDVSYLKEEA[Aib]LQRWLEHLV-NH2 (not fully specified (residue 14)) [SEQ ID NO: 135] | 11.3 -log M
24 | B2 | 8.1 -log M
25 | H[Aib]EGTFTSDVSVLKEEA[Aib]LQRFLEHLV-NH2 (not fully specified (residue 14)) [SEQ ID NO: 138] | 10.9 -log M
26 | B3 | 8.6 -log M
27 | H[Aib]EGTFTSDVSYLKEEA[Aib]SQRFLEHLV-NH2 (not fully specified (residue 14)) [SEQ ID NO: 134] | 11.1 -log M
28 | B4 | 8.1 -log M
29 | B5 | 10.7 -log M
30 | B6 | 8.1 -log M
31 | H[Aib]EGTFTSDVSYLWEEA[Aib]LQRFLEKLV-NH2 (not fully specified (residue 25)) [SEQ ID NO: 130] | 10.5 -log M
32 | H[Aib]EGTFTSDVSFLKE[Aib]AATQRFLEHLV-NH2 (not fully specified (residue 14)) [SEQ ID NO: 13] | 10.5 -log M
33 | B7 | 11.4 -log M
34 | H[Aib]EGTFTSDVSYLKEEA[Aib]LQRFLEFLV-NH2 (not fully specified (residue 14)) [SEQ ID NO: 133] | 10.8 -log M
35 | H[Aib]EGTFTSDVSNLKEEA[Aib]LQRFLEHLV-NH2 (not fully specified (residue 14)) [SEQ ID NO: 136] | 10.9 -log M
36 | H[Aib]EGTFTSDVSYLKEEAALQRFLEHLV-NH2 (not fully specified (residue 14)) [SEQ ID NO: 137] | 11.1 -log M
37 | B8 | 8.9 -log M
38 | H[Aib]EGTFTSDVSYLKEEALLQRFLEHLV-NH2 (not fully specified (residue 14)) [SEQ ID NO: 132] | 10.7 -log M
39 | H[Aib]EGTFTSDVSYLKEEA[Aib]NQRFLEHLV-NH2 (not fully specified (residue 14)) [SEQ ID NO: 131] | 11.3 -log M
40 | B9 | 8.4 -log M
